Measurements reported in the nanobody polyreactivity screen of Harvey et al. (2022).

Assay: yeast display, Sf9 membrane polyspecificity reagent, FACS + sequencing; frameworks hold sequencing errors
In short: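 Galactose-induced (36–48 hours) yeast carrying a synthetic nanobody display library were exposed to 10% biotinylated, detergent-solubilized Sf9 membrane reagent at 4 °C for 1 hour. FACS followed streptavidin microbead enrichment, using low and high (top ~1%) gates for expression (anti-HA) and reagent binding (streptavidin). Colony PCR, MiSeq 2 × 250 sequencing and CDR-length filtering followed. Labels for polyreactivity reflect the gate of origin.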

Sequence	polyreactivity (PSR sort gate)
QVQLVESGGGLVQAGGSLRLSCAASGRIFDRNAMGWYRQAPGKERELVARIDPGDDTNYADSVKGRFTISRDNAKNTVYLQMNSLKPEDTAVYYCAADGVVVVAADMYYWGQGTQVTVSS	low polyreactivity
QVQLVESGGGLVQAGGSLRLSCAASGLIFYSYTMGWYRQAPGKERELVAVISRSGTSTYYADSVKGRFTISRDNAKNTVYLQMNSLKPEDTAVYYCAALTRSGPYAYEYWGQGTQVTVSS	high polyreactivity
QVQLVESGGGLVQAGGSLRLSCAASGRTFYTYAMGWYRQAPGKERELVAAITYSGGRTSYADSVKGRFTISRDNAKNTVYLQMNSLKPEDTAVYYCAARTLGRRLDYGYWGQGTQVSVSS	low polyreactivity
QVQLVESGGGLVQAGGSLRLTCAASGNTFVSNAMGWYRQAPGKERELVAAINSGGSTNYADSVKGRFTISRDNAKNTVYLQMNSLKPEDTAVYYCNKDYDYPQRYWMDFWGQGTQVTVSS	low polyreactivity
QVQLQESGGGLVQAGGSLRLSCAASGTIFRISDMGSYRQAPGKDLEFVAAITYGANTYYADSGKGRFTISRDNAKNTVYLQMNSLKPEDTAVYYCAVPPVKETILDYWGQGTQVTVSS	low polyreactivity
QVQLVESGGGLVQAGGSLRLSCAASGFIFADYAMGWYRQAPGKERELVAAITGRGTSTYYEDSVKGRFTISRDNAKNTVYLQMNSLKPEDTAVYLCAAAGTYYRHYKGYYRHLDYWGQGTQVTVSS	high polyreactivity
QVQLVESGGGLVQAGGSLRLSCAASGRIITKYTMGWYRQAPGKVRELVAAISRSDRTNYADSVKGRFTISRDNAKNTVYLQMNSLKPEDTAVYYCNARHSYWTGRRVTDDYDYRGQGTQVTVSS	high polyreactivity
QVQLVESGGGLVQAGGSLRLSCAASGLIFSYYAMGWYRQAPGKERELVAAISWSGGSTYYADSVKGRFTISRDNAKNTVYLQMNSLKPEDTAVYYCAADRISADYDYWGQGTQVTVSS	low polyreactivity
QVQLVESGGGLVQAGGSLRLSCAASGSIFLSYTMGRYRQAPGKERELVAAITSGGSTKYADSVKGRFTISRDNAKNTVYLQMNSLKPEDTAVYYCNATPYSRLGYWGQGTQVTVSS	high polyreactivity
QVQLVESGGGLVQAGGSLRLSCAASGSTFVGYAMVWYRQAPGKERELVAAISRSGGSTYYADSVKGRFTISRDNAKNTVYLQMNSLKPEDTAVYYCAAGARAFDDDFWGQGTQVNVSS	low polyreactivity
QVQLVESGGCLVQAGGSLRLICAASGFIFTPYAMGWYRQAPGKERELVAAIRNSDGSTYYADSVKRRFTISRDTAKHSVYLQMNSLKPEDTAVFYCAKRYRGEPGGTYGYWGQGTQVNVSS	high polyreactivity
QVQLVESGGGLVQAGGSPRLSCAASGSISNYYGMGWYRQAPRKERELVAAITWGGGRTNYADSVKGRFTISRDNAKNTVYLQMNSLKPEDTAVYYCAKVSVTHRYGAGGDYWGQGTQVTVSS	low polyreactivity
QVQLVESGGGLVQAGGSLRLSRAASGFIFVQNAMVWYRQAPGKERELVASLTSGGTTNYADSVKGRFTISRDNAKNTVYLQMNSLKPEDTAVYYCNARLERTPSLYLYGSWGQGTQVTESS	low polyreactivity
QVQHVESGGGLVQAGGSLRLSCAASGRTFGSNAMGWYRQAPGKERELVAAISLRGGRTYYADSVKGRFTISRDNAKNTVYLLMNSLKPEDTAVYYCNAVHYLYGARSRLTYDYWGQGTQVTVSS	high polyreactivity
QVQLVESGGGLVQAGGSLRLSCAASGSTFVWKAMGWYRQAPGKERELVAAISSSGGITYYADSVKGRFTISRDNAKNPVYLQMNSLKPEDTAVYYCAAERDDDWVNYWGQGTQVTVSS	low polyreactivity
QVQLVESGGGLDQAGGSLSLSCAASGYTYRLYAMGWYRQAPGKERELVAAITWRGGSTYYADSVKGRFTISRDNAKNTVYLQMNSLKPEDTAVYYCAAEFYIGRQGNYWGLGTQVTVSS	high polyreactivity
QVQLVESGGGLVQAGGSLRLSCAASGRTFWSNAMGWYRPAPGKERELVAAITWSGGSTSYADSVKGRFTISRDNAKNTVYLQMNSLKPEDTAVYYCAAGKGVELAKLDYWGQGTQVTVSS	low polyreactivity
QVHLQDSGGGLVKAGGSLRMSCAASGYIFGSGSMGWFRQAPGKERELVATINNGSSTYYADSVKGRFTISRDNAKNNVYLQMNSLKAEATAVYYCAVYLYRLTFFYYWGQGNQVTVSS	high polyreactivity
QVLLVDSGGGLVHAGGIHRLSCHASVGIFSWYDMGLYRQAPGKERELVAAISWSGGSTYYAYSVKGRFTISRDNAKNTVYLQMNSLKPEDTAVYYCAAYTADYYDYWGQGTQVTVSS	high polyreactivity
QVQLVESGGGLVQAGGSLRLSCAASGRTFVNYAMGWYSQAPGKERELVAAISWTDDDTYYADSVKGRFTISRDNAKNTVYLQMNSLKPEDTAVYYCATDYDSYDYWGQGTQVTVSS	low polyreactivity
QVQLQESGRGLVQAGGSLRLSCAASGTISSRWGKGWYLQAPGKERELFASNDQGASTYYADSVKGRFTISRDNAKNTVYLQMNSLKPEDTEVYYCIAVPSSAGDYWGQGTQVTVSS	low polyreactivity
QVQLVESGGGLVQAGGSLRLSCAASGFTLSYYAMGWYRPAPGKEREFVAAIRTSGTSTYYADSVKGRFTISRDNAKNTVYLQMNSLKPEDTAVYYCAVARGSGWYWRSDYWGQGTQVTVSS	high polyreactivity

Sequence	polyreactivity (PSR sort gate)
QVQLVESGGGLVQAGGSLRLSCAASGSIFDYYAMGWYRQAPGKERELVAAINISGGDTYYADSVKGRFTISRDNAKNTVYLQMNSLKPEDTAVYYCAADWVTWWFSRVGWDYGYWGQGTQVTVSS	low polyreactivity
QVQLVESGGGLVQAGGSLRLSCAASGSIFGRNAMGWYRQAPGKERELVAAITWSGDSTYYADSVKGRFTISRDNAKNSVYLQMNSLKPEVTAVYYCAVKSYVPYLSYIYSFGYWGQGTQVTVSS	low polyreactivity
QVQLVESGGGLVQAGGSLRLSCAASGRTLAHYTMGWYRQAPGKERELVAAITFSGGRTYYADSVKGRFTISRDNAKNTVYLQMNSQKPEDTAVYYCAAPGRWYYRGDDYWGQGTQVTVSS	low polyreactivity
QVQLVESGGGLVQAGGSLRLSCAASGRIFGRNTMGWYRQAPGKEREFVAAITWSGGSTYYADSVKGRFTISRDNAKNTVYLQMNSLKPEDTAVYYCAAPSYYRYDYWGQGTQVTVSS	high polyreactivity
QVQLVESGGGLVQAGGSLRLSCAASGSTFTYYAMGWYRQAPGKERELVAAITGRGGRTYYADSVKGRFTISRDNAKNTVYLQMNSLKPEDTAVYYCARYPSSDTYWTKYDYWGQGTQVTVSS	high polyreactivity
QVQLVESGGGLVQAGGSLRLSCAASGFTLDPYAMGWYRQAPGKERELVAAIRLSGSSTYYADSVKGRFTISRDNAKNTVYLQMNSLKPEDTAVYYCAADGISHWMYRYDYWGQGTQVTVSS	low polyreactivity
QVQLVESGGGLVQAGGSLRLSCAASGFTFVGNAMGWYRQAPGLERELVAAITRGGSSYYADSVKGRFTISRDNAKKTVYLQMNSLKPEDTAVYYCNAELPVHWSWYDYWGQGTQVTVSS	low polyreactivity
QVQLVESGGGLVQAGGSLRLSCAASGSTFTANAMGWYRQAPWKERELVAAITNSDGSTYYADSVKGRFTISRDNAKNTVYLQMNSLKPEDTAVYYCAKDYYACYWEMDYWGQGTQVTVSS	low polyreactivity
QVQHVESGGGLVQAGGSLRLSCAASGSISPQNVMGWYRQAPGKERELVAAITGGGYTNYADSVKGRFTISRDNANNTVYLQMNSLKPEDTAVYYCNADYFQDRLDYWGQGTQVTVSS	low polyreactivity
QVQIVESGGGLVQAGGSLRVSCAASGRTFSWYAMGWYRQARGKEWEIVAAIRWSGSSTYYADSVKGRFTISRDNAKNTVYLQMNSLKPEDTAVYYCAVAAGIPQRRYYYWGQGTQVTVSS	high polyreactivity
QVQLVESGGGLVQAGGSLRLSCAASGSTFLWNAMGWYRPAPGKERELVAAISYSGGSTYYADSVKGRFTISRDNAKNTVYLQMNSLKPEVTAVYYCAKEWFYDPYPPGYDYWGQGTQVTVSS	low polyreactivity
HVQLVESGGGLVQAGGSLRLSCPASGRIFYRNPMGWYRQAPGKERELVAGISKRGGSTYYADSVKGRFTISRDNAKNTVYLQMNSLKPEDTAVYYCATVPYSPPSAGPEYDYWGQGTQVTVSS	high polyreactivity
QVQLVESGGGLVQAGGSLRLSCAASGSTFQYYAMGWYRQAPGKERELVAAISSGGSTYYADSVKGRFTISRDNAKNTVYLQMNSLKPEDTAVYYCAADFVKRQANRQFDYWGQGTQVTVSS	high polyreactivity
QVQLVESGGGLVQAGRSLRLSCAASGSTYAKYAMGWYRQAPGKEREVVAVISRTGTITRYADSEKGRFTISRDNAKNTVYLQMNSLKPEDTAVYYCAATIRAYNQHGFLYPYYYWGQGNQVTVSS	high polyreactivity
QVQLVESGGGLVQAGGSLRLSCAASGRTFAYYAMGWYRQAPGKERELVAAISSSGGITYYADSVKGRFTISRDNAKNTVYLQMNSLKPEDTAVYYCATPRARTRLRYYWGQGTQVTVSS	high polyreactivity
QVQLVESGGGLVQAGGSLRLSCAASGRIFKYNAKGWYRQAPGKERELVAAISGTGGSTYYADSVKGRFTISRDNAKNTVYLQMNSLKPEDTAVYYCNRRYYGHSTWKYDYWAQGTQVTVSS	high polyreactivity
QVQLVESGGGLVQAGGSLRLSCAASGFTFALYAMGWYRQAPGKERELVAAITSGGSTNYADSVKGRFTISRDNAKNTVYLLMNSLKPEDTAVYYCAAVPYYRYYSLKGRNNYNYWGQGTQVTVSS	high polyreactivity
QVQLVESGGGFVQAGGSLRLSCAASGCTVRWNAKGWYRQATGKDRELVAAITYSGGSTYYADSVKGRLTISRDIANNTVYLQMNSLNPEDTAVYYCATEGRGYFCYYTDDYWGQGTQVTVSS	high polyreactivity
QVQLVESGGGLVQAGGSLRLSCAASGSTFYYYAMGWYRQAPGKERELVAAIDWSGESTYYADSVKGRFTISRDKAKKTVYLQMHSLKPEDTAVYYCAADLGYPWGYVLFYKQSISYYYWGQGTQVTVSS	low polyreactivity
QVQLVESGGVLVQAGGSLRLSCAASGNTFKHYALGGYRQAPGKEREKVAAISRSGASTNYADSVKGRFTISRDNAKNTVYLQMNSLKPEDTAVYYCAAEYSARKAYLYDYWGQGTQVTVSS	high polyreactivity
QVQLVESGGGLVQAGGSRRLSCAASGSTFYGYAMGWYRQAPGKERELVAAIRRIGGTTYADSVKGRFTLSRDNAKNTVYLQMNSLKPEDTAVYYCAAYGFSYRYRYYYWGQGTQVTVSS	high polyreactivity
